Laboratory results reported in patent publication US20250171505A1 (CENTRE NATIONAL DE LA RECHERCHE SCIENTIFIQUE CNRS, published 2025).

T1: VSV Gth, soluble form of the ectodomain of G (amino acid residues 1-422, generated by thermolysine l (vesicular stomatitis virus, Indiana …, UniProt P03522 17-438))
T1 sequence: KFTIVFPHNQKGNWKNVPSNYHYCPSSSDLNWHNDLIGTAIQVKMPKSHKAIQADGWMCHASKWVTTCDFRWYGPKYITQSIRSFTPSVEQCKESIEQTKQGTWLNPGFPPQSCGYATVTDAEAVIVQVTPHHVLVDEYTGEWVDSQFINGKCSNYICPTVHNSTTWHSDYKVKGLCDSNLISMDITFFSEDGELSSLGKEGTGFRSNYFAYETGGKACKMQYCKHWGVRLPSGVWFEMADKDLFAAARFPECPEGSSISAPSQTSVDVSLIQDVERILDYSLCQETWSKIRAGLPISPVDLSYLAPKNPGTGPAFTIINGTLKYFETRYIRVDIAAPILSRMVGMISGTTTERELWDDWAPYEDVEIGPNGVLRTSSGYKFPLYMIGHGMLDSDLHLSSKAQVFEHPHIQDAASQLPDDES

B1: CR3 monovalent domain of human LDL-R (isolated, GST removed) (receptor)
chain: not shown
notes: domain: CR3
B2: CR2 monovalent domain of human LDL-R (isolated, GST removed) (receptor)
chain: not shown
notes: domain: CR2
B3: CR1 monovalent domain of human LDL-R (isolated, GST removed) (receptor)
chain: not shown
notes: domain: CR1

Legend:
[1] = biological target: T1, VSV Gth, soluble form of the ectodomain …; test: ITC at 20 C, pH 8.0, CR domain injected into Gth
[2] = biological target: T1, VSV Gth, soluble form of the ectodomain …
[3] = biological target: T1, VSV Gth, soluble form of the ectodomain …; test: ITC at 20 C, pH 8.0

Binder	stoichiometry [1]	Kd [2] [µM]	binding result [3]
B1	1	4.3	–
B2	1	7.3	–
B3	–	–	no binding
